# Measurements as given in publication PMC10033409, “Autoregulation of GPCR signalling through the third intracellular loop” (Nature, 2023).
# Target: T1, β2 adrenergic receptor (β2AR), wild type, receptor part of the β2AR–G peptide SPASM FRET sensor (human, UniProt P07550)
# T1 construct: β2 adrenergic receptor (β2AR), human; One polypeptide: Receptor-4×GSG-mCitrine-4×GSG-10 nm ER/K linker-4×GSG-mCerulean-4×GSG-G peptide; the receptor and the G peptide (m5 or m6) are tethered on the same chain; also called WT; wild-type β2AR–Gs peptide sensor; source: HEK 293T Flp-In T-Rex cells, transfected, crude membrane extracts; not shown: mCitrine, C-terminal, kept
# Test: FRET or BRET; ∆FRET assay of β2AR SPASM sensors in membrane extracts; purified Nb6B9 added to quench the agonist-induced change in FRET
# Details: one partner purified
binder,measurement,value
"Nanobody Nb6B9 (Nb6B9-2×GSG-SNAP tag-Flag-2×GSG-6×His) (VHH, Cloned into a pBiex1 backbone; source: E. coli JM109, purified (Ni-NTA, Superdex 200 gel filtration)) VHH: QVQLQESGGGLVQAGGSLRLSCAASGSIFALNIMGWYRQAPGKQRELVAAIHSGGTTNYANSVKGRFTISRDNAANTVYLQMNSLKPEDTAVYYCNVKDFGAIIYDYDYWGQGTQVTVSS",binding result,binds
